{"source": "the nanobody polyreactivity screen of Harvey et al. (2022)"}
{"assay": "yeast display, Sf9 membrane polyspecificity reagent, FACS + sequencing; frameworks hold sequencing errors", "summary_of_the_method": "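Galactose induction of a Saccharomyces cerevisiae BJ5465 synthetic nanobody display library ran 36–48 hours. The cells were then stained for 1 hour at 4 °C with 10% biotinylated, detergent-solubilized Sf9 membrane reagent, pulled down on streptavidin microbeads and FACS-sorted into low and high (top ~1%) gates on expression and reagent-binding fluorescence. Labels for polyreactivity follow the gate of origin.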"}
{"sequence": "QVQLVESGGGLVQAGGSLRLSCAASGITFRKYFMGWYRQAPGKERELVATITRNGGTTNYADSVKGRFTISRDNAKNTVYLQMNSLKPEDTAVYYCAAPGPGYIYLGFDYWGQGTQVTVSS", "polyreactivity (PSR sort gate)": "high polyreactivity"}
{"sequence": "QVQLVESGGGLVQAGGSLRLSCAASGITFRLYAMGWNRQAPGKERELVAAITGSGGRTYYADSVKGRFTISRDNAKNTVYLHMNSLKPEDTAVYYCAADWRHLRYRGGLKYDYWGQGTQVTFSS", "polyreactivity (PSR sort gate)": "high polyreactivity"}
{"sequence": "QVQLVESGGGLVQAGGSLRLSCAASGITFRLYAMGWYRQAPGKERELVAAISKRGGSTYYADSVKGRFTISRDNAKNTVYLPMNSLKPDDTAVYYCAADSGWEHRYDYWGQGTQVTVSS", "polyreactivity (PSR sort gate)": "high polyreactivity"}
{"sequence": "QVQLVESGGGLVQAGGSLRLSCAASGITFRRYTMGWYRQAPGKEWELVATISLSDGNTYYADSVKGRFTISRDNAKTTVYLQMNSLKPEDTAGYYCNARHTWHQTYDYWGQGTQVTVSS", "polyreactivity (PSR sort gate)": "low polyreactivity"}
{"sequence": "QVQLVESGGGLVQAGGSLRLSCAASGITFRSYAMGWYRQAPGKDRELVAAISRTGGRTYYADSVKGRFTISRDNAKNTVYLQMNSLKAEDSAVYYCAAGGYSPYSLVGYDYWGQGTQVTVSS", "polyreactivity (PSR sort gate)": "high polyreactivity"}
{"sequence": "QVQLVESGGGLVQAGGSLRLSCAASGITFRYYAMGWYRQAPGKERELVATISSSGARTYYADSVKGRFTISRDNAKNTVYFQINSLKPEDTAVYYCNAVTFTLHSQPYDYWGQGTQVTVSS", "polyreactivity (PSR sort gate)": "high polyreactivity"}
{"sequence": "QVQLVESGGGLVQAGGSLRLSCAASGITFRYYAMGWYRQAPGKERELVSVISKGGTSTYYADSVKGRFTISRDNAKITVYLQMNSLKPEDTAVYYCAAAYFSSGYKYYYWGQGNQVTVSS", "polyreactivity (PSR sort gate)": "high polyreactivity"}
{"sequence": "QVQLVESGGGLVQAGGSLRLSCAASGITFRYYPMGWYRPAPGKQRELVAAISRTSGRTYYADSVKGRFTISRDNAKNTVYLQMNSLNPEDPAVYYCNKAWTPSLLYQSYYWGQGPQVTVSS", "polyreactivity (PSR sort gate)": "high polyreactivity"}
{"sequence": "QVQLVESGGGLVQAGGSLRLSCAASGITFRYYTMGWYRQAPGKERELVAVISWSGGSTYYADSVKGRFTISRDNGKNTVYLQMNSLKPEDTAVYYCAAVRRISRYDYWGQGTQVTVSS", "polyreactivity (PSR sort gate)": "high polyreactivity"}
{"sequence": "QVQLVESGGGLVQAGGSLRLSCAASGITFRYYVMGWYRQAPGKERELVASISWGGGSTYYADSVKGRFTISRDNAKNTVYLQMNSLKPEDTAVYYCAARVPRPSYRGMNYWGQGTQVTVSS", "polyreactivity (PSR sort gate)": "high polyreactivity"}
{"sequence": "QVQLVESGGGLVQAGGSLRLSCAASGITFSFYAMGWYRQAPAKERELVATIDSGGSTNYADSVKWRFTISRDNAKNTVYLQMNSLKPEYTAVYYCAADGVWYYYDMDYWGQGTQVTVSS", "polyreactivity (PSR sort gate)": "low polyreactivity"}
{"sequence": "QVQLVESGGGLVQAGGSLRLSCAASGITFSFYAMGWYRQAPRKERELVAGITRSGGDTYYADSVKGRFTISRDNAKNTVYLQMNSLKPEDTAVYDCADAWFFYRRQYTFFAGRMDYWGQGTQVTVSS", "polyreactivity (PSR sort gate)": "high polyreactivity"}
{"sequence": "QVQLVESGGGLVQAGGSLRLSCAASGITFSGNAMGWYIQARGKERELVAGISRRGGSTYYADSVKGSFTISRDNAKNTVYLQINCLKPEATAVYYCADGRDRYRGVAYDYWGQGTQVTVSS", "polyreactivity (PSR sort gate)": "high polyreactivity"}
{"sequence": "QVQLVESGGGLVQAGGSLRLSCAASGITFSGNAMGWYRQAPGKERELVAAISGRGGSTYYADSVKGRFTISRDNAKNTVYLQMNSLKPVDTAVYYCAADSPENRYNYWGQGTQVTVSS", "polyreactivity (PSR sort gate)": "high polyreactivity"}
{"sequence": "QVQLVESGGGLVQAGGSLRLSCAASGITFSGNTMGWYRQAPGKERELVAAISSGGSTYYADSVKGRFTISRDNAKNTVYLQMNSLKPEDTAVYYCAVDYFYQDGRGYNEYWGQGTQVTVSS", "polyreactivity (PSR sort gate)": "low polyreactivity"}
{"sequence": "QVQLVESGGGLVQAGGSLRLSCAASGITFSGYVMGWYLQAPGKERELVAAISRSGGSTYYADSVKGRYTISRDNAKNTVYLQMNSLKPEDTAVYYCATASRTSRTGWAGYFWGQGTQVTVSS", "polyreactivity (PSR sort gate)": "high polyreactivity"}
{"sequence": "QVQLVESGGGLVQAGGSLRLSCAASGITFSHNAMGWSRPAPGKERELVAVIRWSGGRTYYADSVKGRFTISRDNAKNTVYLQMNSLKPEDTAVYYCAARPSTAFPYGKIMDYWGQGTQVTVSS", "polyreactivity (PSR sort gate)": "low polyreactivity"}
{"sequence": "QVQLVESGGGLVQAGGSLRLSCAASGITFSKNAMGWYRKEPGKEKELVAAISRGGSTYYADSEKGRFTISRDNAKNTVYLQMNSLKPEDTAVYYCAARSRYYYRRPQISYDYWGQGTQVTVSS", "polyreactivity (PSR sort gate)": "low polyreactivity"}
{"sequence": "QVQLVESGGGLVQAGGSLRLSCAASGITFSKYAMGWYRQAPGKERELVAAISQRGGSKYYADSVKGRFTISRDNAKNTVYLQMNSLKPEDTAVYYCNAEFYWSIIAYEYWGQGTQVTVSS", "polyreactivity (PSR sort gate)": "high polyreactivity"}
{"sequence": "QVQLVESGGGLVQAGGSLRLSCAASGITFSRNAMGWYRQAPGKERELVATITSGGSTNYADSVKGRFTISRDNAQNTVYLQMNSLKPEDTAVYYCNAVWNTFISGRSYDYWGQGTQVTVSS", "polyreactivity (PSR sort gate)": "low polyreactivity"}
{"sequence": "QVQLVESGGGLVQAGGSLRLSCAASGITFSRNTMGWYRQAPGKERELVAAISRSGASTYYADSVKGRFTISRDNAKNTVYLQMNSLKPEDTAVYYCAARFHYPGGPRYYYWGQGTQVTVSS", "polyreactivity (PSR sort gate)": "high polyreactivity"}
{"sequence": "QVQLVESGGGLVQAGGSLRLSCAASGITFSRYAMGWYRQAPGKERELVAAISWSGTSTYYADSVKGRFTISRDNAKNTVYLQMNSLKPEDTAVYYCAASYGYYRYGYWGQGTQVTVSS", "polyreactivity (PSR sort gate)": "high polyreactivity"}
{"sequence": "QVQLVESGGGLVQAGGSLRLSCAASGITFSRYAMGWYRQAPGKERELVATITFSGTSTFYADSVKGRFTISRDNAKNRFYLQMNSLKPEDTAVYYCARLRFGSWSTYYYWGQGTQVTVSS", "polyreactivity (PSR sort gate)": "low polyreactivity"}
{"sequence": "QVQLVESGGGLVQAGGSLRLSCAASGITFSRYAMGWYRQAPGKERELVATITFSGTSTFYADSVKGRFTISRDNAKNTVYLQMNSLKPEDTAVYYCARLRFGSWSTYYYWGQGTQVTVSS", "polyreactivity (PSR sort gate)": "low polyreactivity"}
{"sequence": "QVQLVESGGGLVQAGGSLRLSCAASGITFSSNAMGWSRQAPGKERELVAAISSSGGRTYYADSVKVRFTISRDYAKNTVYLQMNSLKPEDTAVYYCAKTSRYYYYSRLYYWGQGTKVTVSS", "polyreactivity (PSR sort gate)": "high polyreactivity"}
{"sequence": "QVQLVESGGGLVQAGGSLRLSCAASGITFSSYAMGWSRQAPGKERELVAAITSRGGSTYYADSVKGRFTISRDNAKNTVYLQMNSLKPEDTAVYYCNASRVRRWNDYYKKFDYWGQGTQVTVSS", "polyreactivity (PSR sort gate)": "high polyreactivity"}
{"sequence": "QVQLVESGGGLVQAGGSLRLSCAASGITFSSYAMGWYRQAPGKERELVAGITRRGGITYYADSVKGRFTISRDNAKNTVYLQMNSLNPEDTAVYYCAATHRFRSGSPDGGYGYWGQGTQVTVSS", "polyreactivity (PSR sort gate)": "high polyreactivity"}
{"sequence": "QVQLVESGGGLVQAGGSLRLSCAASGITFSSYAMGWYRQAPGKERELVAGITRRGRITYYADSVNGRFTISRDNAKNTVYLQMNSLKPEDTAVYYCAATHRFRTGSPDGGFGYWGQGTQVTVSS", "polyreactivity (PSR sort gate)": "high polyreactivity"}
{"sequence": "QVQLVESGGGLVQAGGSLRLSCAASGITFSVYTMGWYRPAPGKERELVAAIDSDGITNYADSVKGRFTISRDNAKNNVYLQMNSLKPEDTAVYYCAKQSGRADGVSGFDYWGQGTQVTVSS", "polyreactivity (PSR sort gate)": "low polyreactivity"}
{"sequence": "QVQLVESGGGLVQAGGSLRLSCAASGITFSYNAMGWSRQAPGKERELVAAISSNSDSTYYADSVKGRFTISRDNAKNTVYLQMNSLKPEDTAVYYCAADTPDAPDYSGFYYWGQGSQVTVSS", "polyreactivity (PSR sort gate)": "low polyreactivity"}
{"sequence": "QVQLVESGGGLVQAGGSLRLSCAASGITFSYNAMGWYRPAPGKERELVAAIRVGDGSTYYADSVKGRFTISRDNAKNTVYLQMNSLNPEDTAVYYCNARYLRLRYPYTDEYNYWGQGTQVTVSS", "polyreactivity (PSR sort gate)": "low polyreactivity"}
{"sequence": "QVQLVESGGGLVQAGGSLRLSCAASGITFSYNAMGWYRPAPGKERELVAAISSNSDSTYYADSVKGRFTISRDNAKNTVYLQMNSLKPEDTAVYYCAADTPDAPDYSGFYYWGQGTQVTVSS", "polyreactivity (PSR sort gate)": "low polyreactivity"}
{"sequence": "QVQLVESGGGLVQAGGSLRLSCAASGITFSYNARGWYRQAPGKERELVAAIRVGDGSTYYADSVKGRFTISRDNAKNTVYLQMHSLKPEDTAVYYWNARYLRLRYPYTDEYNYWGQGTQVTVSS", "polyreactivity (PSR sort gate)": "low polyreactivity"}
{"sequence": "QVQLVESGGGLVQAGGSLRLSCAASGITFSYYALGWYRQAPGKERELVAVISAGGGTTYYADSVKGRFTISRDNAKNTVYLQMNSLKPEDTAVYYCAVKIVVWWGEYDYWGQGTQVTVSS", "polyreactivity (PSR sort gate)": "high polyreactivity"}
{"sequence": "QVQLVESGGGLVQAGGSLRLSCAASGITFTDYAMGWYRQAPGKERELVAAISSRGGSTYYADSVQGRFTISRDNAKNTVYVQMNSLKPEDTAVHYCNARFVRRGSGYDYWGQGTQVTVSS", "polyreactivity (PSR sort gate)": "high polyreactivity"}
{"sequence": "QVQLVESGGGLVQAGGSLRLSCAASGITFTGNAMGWYRQAPGKERELVAAISNRGGSTYYADSVKGRFTISRDNAKNTVYLQMNSLKPEDTAVYYCRTSTPRRVSGNSWGQGTQVTVSS", "polyreactivity (PSR sort gate)": "high polyreactivity"}
{"sequence": "QVQLVESGGGLVQAGGSLRLSCAASGITFTGNAMGWYRQAPGKERELVAAISNRGGSTYYADSVKGRFTISRDNAKNTVYLQMNSLKPEDTAVYYCRTSTPRRVSGNYWGQGTQVTVTS", "polyreactivity (PSR sort gate)": "high polyreactivity"}
{"sequence": "QVQLVESGGGLVQAGGSLRLSCAASGITFTGYAMGWSRQAPGKERELVAAISKRGARTYYADSVKGRFTNSRDNAKNTVYIQMNSLKPEDTAVYYCAADSTAQDIAGLYYWGQGTQVTVSS", "polyreactivity (PSR sort gate)": "high polyreactivity"}
{"sequence": "QVQLVESGGGLVQAGGSLRLSCAASGITFTGYAMGWYRQAPGKERELVAAITWSSGSTYYADSVKGRFTISRDNAKNTVYLQMNSLKPEDTAVYYCNAGYWYDGPDYIPEYDYWGQGTQVTVSS", "polyreactivity (PSR sort gate)": "low polyreactivity"}
{"sequence": "QVQLVESGGGLVQAGGSLRLSCAASGITFTVNAMGWYRQAPGKERELVAAITYSGGNTYYADSVKGRFTISRDTAKNTVYLQMNSLKPEDTAVYYCAADNWPWPEKPDKSILYDYWGQGTQVTVSS", "polyreactivity (PSR sort gate)": "low polyreactivity"}
{"sequence": "QVQLVESGGGLVQAGGSLRLSCAASGITFTVNSMGWYRQAPAKERELVAAISNDGSTYYADSVKGRFTISRDNAKNSVYLQMNRLKTEDTAVYYCAADTWDVFGPYGYDYWGQGTQVTVSS", "polyreactivity (PSR sort gate)": "low polyreactivity"}
{"sequence": "QVQLVESGGGLVQAGGSLRLSCAASGITFTVYAMGWYRQATRKERELVAAITSTGSTNYADSVKGLFTISRDNAKNTVYLQMNSLKPEDTAVYYCAADRQITVYAFDYWGQGTQVTVSS", "polyreactivity (PSR sort gate)": "low polyreactivity"}
{"sequence": "QVQLVESGGGLVQAGGSLRLSCAASGITFTYNAMGWYRPAPGKERELVAAITWSGGSTFYADSVKGRFTISRDNAKNTVYLQMNSLKPEDTAVYYCARDTELYDRWLDYWGQGTQVTVSS", "polyreactivity (PSR sort gate)": "low polyreactivity"}
